Assay results from patent publication US20230037815A1.

Target: cynomolgus CD19 (cynomolgus)
Experiment: Octet HTX (ForteBio), IgG on AHC sensor, 1:1 fit

Binder | Kd [nM] | koff [s⁻¹]
CNG-CD19-102 (antibody, V domains shown) VH: QVQLVQSGAEVKKPGASVKVSCKASGYEFTDYIMHWVRQAPGQGLEWMGYINPYNDGSKYTEKFQPRVTMTSDTSISTAYMELSRLRSDDTAVYYCARGTYYYGPQLFDYWGQGTTVTVSS VL: DIVMTQTPLSLSVTPGQPASISCKSSQSLETSTGTTYLNWYLQKPGQSPQLLIYRVSKRFSGVPDRFSGSGSGTDFTLKISRVEAEDVGVYYCLQLLEDPYTFGQGTKLEIK | 12.1 | 0.00218
CNG-CD19-101 (antibody, V domains shown) VH: QVQLVQSGAEVKKPGASVKVSCKASGYDFTDYIMHWVRQAPGQGLEWMGYINPYNDGSKYTDKFQERVTMTSDTSISTAYMELSRLRSDDTAVYYCARGTYYYGPELFDYWGQGTTVTVSS VL: DIVMTQTPLSLSVTPGQPASISCKSSQSLETTTGTTYLNWYLQKPGQSPQLLIYRASKRFSGVPDRFSGSGSGTDFTLKISRVEAEDVGVYYCLQLLEDPYTFGQGTKLEIK | 9.91 | 0.00233
CNG-CD19-106 (antibody, V domains shown) VH: QVQLVQSGAEVKKPGASVKVSCKASGYDFTDYIMHWVRQAPGQGLEWMGYINPYNDGSEYTEKFQGRVTMTSDTSISTAYMELSRLRSDDTAVYYCARGTYYYGPQLFDYWGQGTTVTVSS VL: DIVMTQTPLSLSVTPGQPASISCKSSQSLETATGTTYLNWYLQKPGQSPQLLIYRVSRRFSGVPDRFSGSGSGTDFTLKISRVEAEDVGVYYCLQLLEDPYTFGQGTKLEIK | 3.2 | 0.00123
CNG-CD19-103 (antibody, V domains shown) VH: QVQLVQSGAEVKKPGASVKVSCKASGYTFTDYIMHWVRQAPGQGLEWMGYINPYNDGSKYTEKFQGRVTMTSDTSISTAYMELSRLRSDDTAVYYCARGTYYYGPQLFDYWGQGTTVTVSS VL: DIVMTQTPLSLSVTPGQPASISCKSSQSLETATGTTYLNWYLQKPGQSPQLLIYRVSRRFSGVPDRFSGSGSGTDFTLKISRVEAEDVGVYYCLQLLEDPYSFGQGTKLEIK | 4.69 | 0.00109
CNG-CD19-105 (antibody, V domains shown) VH: QVQLVQSGAEVKKPGASVKVSCKASGYEFTDYIMHWVRQAPGQGLEWMGYINPYNDGSKYTEKFEGRVTMTSDTSISTAYMELSRLRSDDTAVYYCARGTYYYGPELFDYWGQGTTVTVSS VL: DIVMTQTPLSLSVTPGQPASISCKSSQRLETSTGTTYLNWYLQKPGQSPQLLIYRVSRRFSGVPDRFSGSGSGTDFTLKISRVEAEDVGVYYCLQLLEDPPTFGQGTKLEIK | 2.24 | 0.000679
CNG-CD19-1 (antibody, V domains shown) VH: QVQLVQSGAEVKKPGASVKVSCKASGYTFTDYIMHWVRQAPGQGLEWMGYINPYNDGSKYTEKFQGRVTMTSDTSISTAYMELSRLRSDDTAVYYCARGTYYYGPQLFDYWGQGTTVTVSS VL: DIVMTQTPLSLSVTPGQPASISCKSSQSLETSTGTTYLNWYLQKPGQSPQLLIYRVSKRFSGVPDRFSGSGSGTDFTLKISRVEAEDVGVYYCLQLLEDPYTFGQGTKLEIK | 9.39 | 0.00191
CNG-CD19-104 (antibody, V domains shown) VH: QVQLVQSGAEVKKPGASVKVSCKASGYDFTDYIVHWVRQAPGQGLEWMGYINPYNDGSKYTEKFQGRVTMTSDTSISTAYMELSRLRSDDTAVYYCARGTYYYGPELFDYWGQGTTVTVSS VL: DIVMTQTPLSLSVTPGQPASISCKSGQSLETSTGTTYLNWYLQKPGQSPQLLIYRVSRRFSGVPDRFSGSGSGTDFTLKISRVEAEDVGVYYCLQLLEDPYTFGQGTKLEIK | 5.83 | 0.00148
CNG-CD19-107 (antibody, V domains shown) VH: QVQLVQSGAEVKKPGASVKVSCKASGYDFTDYIMHWVRQAPGQGLEWMGYINPYNDGSKYTEKFQHRVTMTSDTSISTAYMELSRLRSDDTAVYYCARGTYYYGPQLFDYWGQGTTVTVSS VL: DIVMTQTPLSLSVTPGQPASISCKSSQSLETSTGTTYLNWYLQKPGQSPQLLIYRVSRRFSGVPDRFSGSGSGTDFTLKISRVEAEDVGVYYCLQLLEDPYTFGQGTKLEIK | 5.64 | 0.00129
CNG-CD19-7 (antibody, V domains shown) VH: QVQLQESGPGLVKPSQTLSLTCTVSGGSISTSGMGVGWIRQHPGKGLEWIGHIWWDDDKRYNPALKSRVTISVDTSKNQFSLKLSSVTAADTAVYYCARMELWSYYFDYWGQGTLVTVSS VL: EIVLTQSPATLSLSPGERATLSCSASSSVSYMHWYQQKPGQAPRLLIYDTSKLASGIPARFSGSGSGTDFTLTISSLEPEDFAVYYCFQGSVYPFTFGQGTKLEIK | 8.43 | 0.000832

Continued, values first:

Kd [nM] | koff [s⁻¹] | Binder
6.17 | 0.00164 | CNG-CD19-110 (antibody, V domains shown) VH: QVQLVQSGAEVKKPGASVKVSCKASGYTFTDYIMHWVRQAPGQGLEWMGYINPYNDGSKYTEKFQGRVTMTSDTSISTAYMELSRLRSDDTAVYYCARGTYYYGPQLFDYWGQGTTVTVSS VL: DIVMTQTPLSLSVTPGQPASISCKSSQSLETSTGTTYLNWYLQKPGQSPQLLIYRSSKRFSGVPDRFSGSGSGTDFTLKISRVEAEDVGVYYCLQLLEDPPTFGQGTKLEIK
2.25 | 0.00065 | CNG-CD19-108 (antibody, V domains shown) VH: QVQLVQSGAEVKKPGASVKVSCKASGYDFTDYIVHWVRQAPGQGLEWMGYINPYNDGSKYTEKFQGRVTMTSDTSISTAYMELSRLRSDDTAVYYCARGTYYYGPQLFDYWGQGTTVTVSS VL: DIVMTQTPLSLSVTPGQPASISCKSSQSLETVTGTTYLNWYLQKPGQSPQLLIYRVSKRFSGVPDRFSGSGSGTDFTLKISRVEAEDVGVYYCLQLLEDPPTFGQGTKLEIK
4.03 | 0.00131 | CNG-CD19-109 (antibody, V domains shown) VH: QVQLVQSGAEVKKPGASVKVSCKASGYDFTDYIVHWVRQAPGQGLEWMGYINPYNDGSLYTEKFQGRVTMTSDTSISTAYMELSRLRSDDTAVYYCARGTYYYGPQLFDYWGQGTTVTVSS VL: DIVMTQTPLSLSVTPGQPASISCKSSQQLETSTGTTYLNWYLQKPGQSPQLLIYRASKRFSGVPDRFSGSGSGTDFTLKISRVEAEDVGVYYCLQLLEDPYSFGQGTKLEIK
2.54 | 0.000352 | CNG-CD19-703 (antibody, V domains shown) VH: QVQLQESGPGLVKPSQTLSLTCTVSGGSISTSTMGVGWIRQHPGKGLEWIGFIWWDDDKRYNPNLKSRVTMSVDTSKNQFSLKLSSVTAADTAVYYCARMELWSYYFEYWGQGTLVTVSS VL: EIVLTQSPATLSLSPGERATLSCSASSSVSYMHWYQQKPGQAPRLLIYDTSKLASGIPARFSGSGSGTDFTLTISSLEPEDFAVYYCFQGSVYPFTFGQGTKLEIK
0.372 | 0.00012 | CNG-CD19-706 (antibody, V domains shown) VH: QVQLQESGPGLVKPSQTLSLTCTVSGGSIASGMGVSWIRQHPGKGLEWIGHIWWDDDKRYNPALKSRVTISVDTSKNQFSLKLSSVTAADTAVYYCARMELWSYYFDPWGQGTLVTVSS VL: EIVLTQSPATLSLSPGERATLSCSASSSVGYMHWYQQKPGQAPRLLIYDTSKLASGIPARFSGSGSGTDFTLTISSLEPEDFAVYYCFQGSVYPFTFGQGTKLEIK
1.24 | 0.000194 | CNG-CD19-704 (antibody, V domains shown) VH: QVQLQESGPGLVKPSQTLSLTCTVSGGSIASGMGVGWIRQHPGKGLEWIGHIWWDDDKRYNPALKSRVTISVDTSKNQFSLKLSSVTAADTAVYYCARMELWSYYFDGWGQGTLVTVSS VL: EIVLTQSPATLSLSPGERATLSCSASSSVSYMHWYQQKPGQAPRLLIYDTSKLASGIPARFSGSGSGTDFTLTISSLEPEDFAVYYCFQGSVYPFTFGQGTKLEIK
0.738 | 0.000207 | CNG-CD19-707 (antibody, V domains shown) VH: QVQLQESGPGLVKPSQTLSLTCTVSGGSISTSTMGVGWIRQHPGKGLEWIGFIWWDDDKRYNPNLKSRVTMSVDTSKNQFSLKLSSVTAADTAVYYCARMELWSYYFDPWGQGTLVTVSS VL: EIVLTQSPATLSLSPGERATLSCSASSSVGYMHWYQQKPGQAPRLLIYDTSKLASGIPARFSGSGSGTDFTLTISSLEPEDFAVYYCFQGSVYPFTFGQGTKLEIK
0.639 | 0.000168 | CNG-CD19-709 (antibody, V domains shown) VH: QVQLQESGPGLVKPSQTLSLTCTVSGGSISTSTMGVGWIRQHPGKGLEWIGFIWWDDDKRYNPNLKSRVTMSVDTSKNQFSLKLSSVTAADTAVYYCARMELWSYYFDPWGQGTLVTVSS VL: EIVLTQSPATLSLSPGERATLSCSASSSVGYMHWYQQKPGQAPRLLIYDTSKLAFGIPARFSGSGSGTDFTLTISSLEPEDFAVYYCFQGSVYPFTFGQGTKLEIK
6.02 | 0.000837 | CNG-CD19-705 (antibody, V domains shown) VH: QVQLQESGPGLVKPSQTLSLTCTVSGGSISTSGMGVGWIRQHPGKGLEWIGHIWWDDDKRYNPALKSRVTISVDTSKNQFSLKLSSVTAADTAVYYCARMELWSYYFDYWGQGTLVTVSS VL: EIVLTQSPATLSLSPGERATLSCSASSSVGYMHWYQQKPGQAPRLLIYDTSSLASGIPARFSGSGSGTDFTLTISSLEPEDFAVYYCFQGSVYPFTFGQGTKLEIK
1.54 | 0.000328 | CNG-CD19-710 (antibody, V domains shown) VH: QVQLQESGPGLVKPSQTLSLTCTVSGVSISTSSMGVGWIRQHPGKGLEWIGHAWWDDDKRYNPALKSRVTISVDTSKNQFSLKLSSVTAADTAVYYCARMELWSYYFDPWGQGTLVTVSS VL: EIVLTQSPATLSLSPGERATLSCSASSSFSYMHWYQQKPGQAPRLLIYDTSKLASGIPARFSGSGSGTDFTLTISSLEPEDFAVYYCFQGSVYPFTFGQGTKLEIK
0.668 | 0.000168 | CNG-CD19-701 (antibody, V domains shown) VH: QVQLQESGPGLVKPSQTLSLTCTVSGGSISTSTMGVGWIRQHPGKGLEWIGFIWWDDDKRYNPNLKSRVTMSVDTSKNQFSLKLSSVTAADTAVYYCARMELWSYYFDYWGQGTLVTVSS VL: EIVLTQSPATLSLSPGERATLSCSASSSVGYMHWYQQKPGQAPRLLIYDTSKLASGIPARFSGSGSGTDFTLTISSLEPEDFAVYYCFQGSVYPFTFGQGTKLEIK
1.02 | 0.000223 | CNG-CD19-708 (antibody, V domains shown) VH: QVQLQESGPGLVKPSQTLSLTCTVSGGSISTSTMGVGWIRQHPGKGLEWIGFIWWDDDKRYNPNLKSRVTMSVDTSKNQFSLKLSSVTAADTAVYYCARMELWSYYFDPWGQGTLVTVSS VL: EIVLTQSPATLSLSPGERATLSCSASSSVGYMHWYQQKPGQAPRLLIYDTSKLSSGIPARFSGSGSGTDFTLTISSLEPEDFAVYYCFQGSVYPFTFGQGTKLEIK
